B1: MTNR1A, P48039 (peptide)
chain: NNNVVKVDSV
B2: MKNK1, Q9BUB5 (peptide)
chain: GEDRSPPTAL

The binders below were run against T1, APBA2_1, Q99767 (assay: holdup assay). Conditions: plain residues with an end cap or a label only (N-terminal biotin on a linker: ado-ado).
T1 sequence (Q99767 563-664, limits assumed, looked up): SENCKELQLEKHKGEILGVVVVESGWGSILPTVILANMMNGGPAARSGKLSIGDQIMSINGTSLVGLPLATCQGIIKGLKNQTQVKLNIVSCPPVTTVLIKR
Design: key: below the threshold = too weak to quantify, mostly under pKd 3.1 to 4
With B1 the pKd was “below the threshold”. With B2 the pKd was “below the threshold”.

Each binder was assayed against T2, SNTA1, Q13424 (assay: holdup assay). Conditions: plain residues with an end cap or a label only (N-terminal biotin on a linker: ado-ado).
T2 sequence (Q13424 82-180, limits assumed, looked up): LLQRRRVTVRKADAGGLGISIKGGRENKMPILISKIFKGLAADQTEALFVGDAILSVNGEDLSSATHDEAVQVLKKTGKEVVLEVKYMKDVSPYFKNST
Design: key: below the threshold = too weak to quantify, mostly under pKd 3.1 to 4
With B1 the pKd was “below the threshold”. B2 was tested, and the pKd was “below the threshold”.

The binders below were run against T3, DLG3_2, Q92796 (assay: holdup assay). Conditions: plain residues with an end cap or a label only (N-terminal biotin on a linker: ado-ado).
T3 sequence (Q92796 221-321, limits assumed, looked up): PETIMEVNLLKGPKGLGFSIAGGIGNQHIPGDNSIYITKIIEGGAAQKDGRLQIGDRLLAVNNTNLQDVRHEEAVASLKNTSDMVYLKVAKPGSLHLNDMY
Design: key: below the threshold = too weak to quantify, mostly under pKd 3.1 to 4
With B1 the pKd was 4.03. With B2 the pKd was “below the threshold”.

These binders were tested against LAP2, Q96RT1 (assay: holdup assay). Conditions: plain residues with an end cap or a label only (N-terminal biotin on a linker: ado-ado).
Chain of LAP2, Q96RT1 (Q96RT1 other isoform, or with tags, fused parts or gaps): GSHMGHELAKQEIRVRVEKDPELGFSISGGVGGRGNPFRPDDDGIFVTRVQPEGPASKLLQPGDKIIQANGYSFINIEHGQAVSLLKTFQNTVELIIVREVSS
Design: key: below the threshold = too weak to quantify, mostly under pKd 3.1 to 4
For B1, the pKd was “below the threshold”. With B2 the pKd was “below the threshold”.

Each binder was assayed against IL16_1, Q14005 (assay: holdup assay). Conditions: plain residues with an end cap or a label only (N-terminal biotin on a linker: ado-ado).
Chain of IL16_1, Q14005 (Q14005 210-306): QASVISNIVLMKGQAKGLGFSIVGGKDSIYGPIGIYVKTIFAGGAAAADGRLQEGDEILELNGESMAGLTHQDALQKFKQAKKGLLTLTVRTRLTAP
Design: key: below the threshold = too weak to quantify, mostly under pKd 3.1 to 4
B1 was tested, and the pKd was “below the threshold”. B2 was tested, and the pKd was “below the threshold”.

The binders below were run against T4, DLG3_3, Q92796 (assay: holdup assay). Conditions: plain residues with an end cap or a label only (N-terminal biotin on a linker: ado-ado).
T4 sequence (Q92796 374-475, limits assumed, looked up): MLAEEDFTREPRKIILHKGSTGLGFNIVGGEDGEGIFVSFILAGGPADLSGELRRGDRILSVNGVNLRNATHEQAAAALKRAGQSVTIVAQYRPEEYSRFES
Design: key: below the threshold = too weak to quantify, mostly under pKd 3.1 to 4
In the case of B1, the pKd is reported as “below the threshold”. For B2, the pKd was “below the threshold”.

The binders below were run against T5, DFNB31_3, Q9P202 (assay: holdup assay). Conditions: plain residues with an end cap or a label only (N-terminal biotin on a linker: ado-ado).
T5 sequence (Q9P202 811-907, limits assumed, looked up): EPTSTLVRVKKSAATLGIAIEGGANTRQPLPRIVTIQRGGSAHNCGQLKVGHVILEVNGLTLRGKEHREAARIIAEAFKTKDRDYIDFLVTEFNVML
Design: key: below the threshold = too weak to quantify, mostly under pKd 3.1 to 4
B1 gave a pKd of 3.93. In the case of B2, the pKd is reported as “below the threshold”.

These binders were tested against GRIP2_5, Q9C0E4 (assay: holdup assay). Conditions: plain residues with an end cap or a label only (N-terminal biotin on a linker: ado-ado).
Chain of GRIP2_5, Q9C0E4 (Q9C0E4 544-642): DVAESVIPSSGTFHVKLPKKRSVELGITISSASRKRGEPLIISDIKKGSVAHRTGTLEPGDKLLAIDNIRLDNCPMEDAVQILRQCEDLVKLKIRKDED
Design: key: below the threshold = too weak to quantify, mostly under pKd 3.1 to 4
For B1, the pKd was “below the threshold”. In the case of B2, the pKd is reported as “below the threshold”.

These binders were tested against SCRIB_1, Q14160 (assay: holdup assay). Conditions: plain residues with an end cap or a label only (N-terminal biotin on a linker: ado-ado).
Chain of SCRIB_1, Q14160 (Q14160 718-814): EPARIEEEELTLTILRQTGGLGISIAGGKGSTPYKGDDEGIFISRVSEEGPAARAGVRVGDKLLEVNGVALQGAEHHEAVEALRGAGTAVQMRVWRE
Design: key: below the threshold = too weak to quantify, mostly under pKd 3.1 to 4
For B1, the pKd was “below the threshold”. B2 was tested, and the pKd was “below the threshold”.

The binders below were run against T6, PARD3B_1, Q8TEW8 (assay: holdup assay). Conditions: plain residues with an end cap or a label only (N-terminal biotin on a linker: ado-ado).
T6 sequence (Q8TEW8 196-299, limits assumed, looked up): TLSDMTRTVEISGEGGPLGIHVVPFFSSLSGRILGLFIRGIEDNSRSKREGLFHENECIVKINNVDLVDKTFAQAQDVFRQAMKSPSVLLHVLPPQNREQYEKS
Design: key: below the threshold = too weak to quantify, mostly under pKd 3.1 to 4
For B1, the pKd was “below the threshold”. B2 showed a pKd of 3.63.

What follows are binders tested against MAGI2_4, Q86UL8 (assay: holdup assay). Conditions: plain residues with an end cap or a label only (N-terminal biotin on a linker: ado-ado).
Chain of MAGI2_4, Q86UL8 (Q86UL8 772-865): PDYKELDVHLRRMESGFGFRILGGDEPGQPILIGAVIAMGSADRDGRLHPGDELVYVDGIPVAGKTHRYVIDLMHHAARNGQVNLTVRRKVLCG
Design: key: below the threshold = too weak to quantify, mostly under pKd 3.1 to 4
For B1, the pKd was “below the threshold”. B2 was tested, and the pKd was “below the threshold”.

What follows are binders tested against T7, APBA3_1, O96018 (assay: holdup assay). Conditions: plain residues with an end cap or a label only (N-terminal biotin on a linker: ado-ado).
T7 sequence (O96018 389-490, limits assumed, looked up): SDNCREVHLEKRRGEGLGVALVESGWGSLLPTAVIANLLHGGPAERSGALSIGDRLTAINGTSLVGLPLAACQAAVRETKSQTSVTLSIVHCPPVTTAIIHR
Design: key: below the threshold = too weak to quantify, mostly under pKd 3.1 to 4
B1 was tested, and the pKd was “below the threshold”. With B2 the pKd was “below the threshold”.

The binders below were run against T8, HTRA3, P83110 (assay: holdup assay). Conditions: plain residues with an end cap or a label only (N-terminal biotin on a linker: ado-ado).
T8 sequence (P83110 354-453, limits assumed, looked up): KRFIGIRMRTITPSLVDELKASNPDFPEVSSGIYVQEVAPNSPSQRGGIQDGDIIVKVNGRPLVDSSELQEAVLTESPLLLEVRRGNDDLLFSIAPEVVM
Design: key: below the threshold = too weak to quantify, mostly under pKd 3.1 to 4
In the case of B1, the pKd is reported as “below the threshold”. B2 was tested, and the pKd was “below the threshold”.

Each binder was assayed against HTRA1, Q92743 (assay: holdup assay). Conditions: plain residues with an end cap or a label only (N-terminal biotin on a linker: ado-ado).
Chain of HTRA1, Q92743 (Q92743 360-477): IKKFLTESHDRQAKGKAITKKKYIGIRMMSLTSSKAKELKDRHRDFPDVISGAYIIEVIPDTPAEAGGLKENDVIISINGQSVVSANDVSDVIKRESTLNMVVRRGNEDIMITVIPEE
Design: key: below the threshold = too weak to quantify, mostly under pKd 3.1 to 4
With B1 the pKd was “below the threshold”. B2 was tested, and the pKd was “below the threshold”.

Each binder was assayed against DLG4_3, P78352 (assay: holdup assay). Conditions: plain residues with an end cap or a label only (N-terminal biotin on a linker: ado-ado).
Chain of DLG4_3, P78352 (P78352 306-403): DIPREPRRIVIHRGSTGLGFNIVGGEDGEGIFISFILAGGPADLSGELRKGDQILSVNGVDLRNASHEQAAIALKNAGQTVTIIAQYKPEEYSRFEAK
Design: key: below the threshold = too weak to quantify, mostly under pKd 3.1 to 4
In the case of B1, the pKd is reported as “below the threshold”. B2 gave a pKd of 3.5.

These binders were tested against Inadl_9, Q8NI35 (assay: holdup assay). Conditions: plain residues with an end cap or a label only (N-terminal biotin on a linker: ado-ado).
Chain of Inadl_9, Q8NI35 (Q8NI35 1530-1615): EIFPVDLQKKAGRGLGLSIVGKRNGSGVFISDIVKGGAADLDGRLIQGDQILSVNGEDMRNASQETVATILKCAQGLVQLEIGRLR
Design: key: below the threshold = too weak to quantify, mostly under pKd 3.1 to 4
B1 was tested, and the pKd was “below the threshold”. In the case of B2, the pKd is reported as “below the threshold”.

These binders were tested against LNX1_2, Q8TBB1 (assay: holdup assay). Conditions: plain residues with an end cap or a label only (N-terminal biotin on a linker: ado-ado).
Chain of LNX1_2, Q8TBB1 (Q8TBB1 371-470): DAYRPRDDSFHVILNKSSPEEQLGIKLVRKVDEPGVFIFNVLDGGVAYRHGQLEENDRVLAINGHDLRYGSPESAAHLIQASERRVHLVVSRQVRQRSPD
Design: key: below the threshold = too weak to quantify, mostly under pKd 3.1 to 4
In the case of B1, the pKd is reported as “below the threshold”. With B2 the pKd was “below the threshold”.

Each binder was assayed against T9, MPP6, Q9NZW5 (assay: holdup assay). Conditions: plain residues with an end cap or a label only (N-terminal biotin on a linker: ado-ado).
T9 sequence (Q9NZW5 125-219, limits assumed, looked up): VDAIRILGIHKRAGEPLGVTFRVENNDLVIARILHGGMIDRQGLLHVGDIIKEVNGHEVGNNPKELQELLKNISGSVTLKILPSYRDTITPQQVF
Design: key: below the threshold = too weak to quantify, mostly under pKd 3.1 to 4
With B1 the pKd was “below the threshold”. B2 showed a pKd of 3.59.

Each binder was assayed against GRASP, Q7Z6J2 (assay: holdup assay). Conditions: plain residues with an end cap or a label only (N-terminal biotin on a linker: ado-ado).
Chain of GRASP, Q7Z6J2 (Q7Z6J2 96-193): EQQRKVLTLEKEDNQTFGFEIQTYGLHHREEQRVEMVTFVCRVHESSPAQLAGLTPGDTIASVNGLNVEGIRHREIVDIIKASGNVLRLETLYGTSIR
Design: key: below the threshold = too weak to quantify, mostly under pKd 3.1 to 4
B1 was tested, and the pKd was “below the threshold”. In the case of B2, the pKd is reported as 4.62.

The binders below were run against Inadl_2, Q8NI35 (assay: holdup assay). Conditions: plain residues with an end cap or a label only (N-terminal biotin on a linker: ado-ado).
Chain of Inadl_2, Q8NI35 (Q8NI35 238-335): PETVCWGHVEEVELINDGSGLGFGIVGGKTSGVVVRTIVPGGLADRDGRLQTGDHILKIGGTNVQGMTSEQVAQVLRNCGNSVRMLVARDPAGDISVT
Design: key: below the threshold = too weak to quantify, mostly under pKd 3.1 to 4
For B1, the pKd was “below the threshold”. B2 was tested, and the pKd was “below the threshold”.

Each binder was assayed against NHERF2_2, Q15599 (assay: holdup assay). Conditions: plain residues with an end cap or a label only (N-terminal biotin on a linker: ado-ado).
Chain of NHERF2_2, Q15599 (Q15599 142-238): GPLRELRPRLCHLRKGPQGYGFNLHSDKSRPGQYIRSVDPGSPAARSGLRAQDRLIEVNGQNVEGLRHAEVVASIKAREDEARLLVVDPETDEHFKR
Design: key: below the threshold = too weak to quantify, mostly under pKd 3.1 to 4
B1 was tested, and the pKd was “below the threshold”. Binder B2 has a pKd of 3.91.

Each binder was assayed against IL16_4, Q14005 (assay: holdup assay). Conditions: plain residues with an end cap or a label only (N-terminal biotin on a linker: ado-ado).
Chain of IL16_4, Q14005 (Q14005 1229-1329): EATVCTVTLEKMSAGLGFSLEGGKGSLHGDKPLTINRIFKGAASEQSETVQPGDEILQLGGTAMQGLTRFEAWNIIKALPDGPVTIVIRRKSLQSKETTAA
Design: key: below the threshold = too weak to quantify, mostly under pKd 3.1 to 4
For B1, the pKd was 3.5. With B2 the pKd was “below the threshold”.

The binders below were run against T10, SNTG1, Q9NSN8 (assay: holdup assay). Conditions: plain residues with an end cap or a label only (N-terminal biotin on a linker: ado-ado).
T10 sequence (Q9NSN8 52-150, limits assumed, looked up): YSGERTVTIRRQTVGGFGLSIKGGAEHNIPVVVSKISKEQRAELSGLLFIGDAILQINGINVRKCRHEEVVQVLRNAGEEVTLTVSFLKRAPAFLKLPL
Design: key: below the threshold = too weak to quantify, mostly under pKd 3.1 to 4
B1 was tested, and the pKd was “below the threshold”. For B2, the pKd was “below the threshold”.

The binders below were run against T11, DFNB31_2, Q9P202 (assay: holdup assay). Conditions: plain residues with an end cap or a label only (N-terminal biotin on a linker: ado-ado).
T11 sequence (Q9P202 274-371, limits assumed, looked up): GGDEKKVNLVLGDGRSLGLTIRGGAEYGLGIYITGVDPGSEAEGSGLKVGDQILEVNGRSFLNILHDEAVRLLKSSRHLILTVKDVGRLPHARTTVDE
Design: key: below the threshold = too weak to quantify, mostly under pKd 3.1 to 4
For B1, the pKd was “below the threshold”. With B2 the pKd was “below the threshold”.

The binders below were run against MAST1, Q9Y2H9 (assay: holdup assay). Conditions: plain residues with an end cap or a label only (N-terminal biotin on a linker: ado-ado).
Chain of MAST1, Q9Y2H9 (Q9Y2H9 962-1065): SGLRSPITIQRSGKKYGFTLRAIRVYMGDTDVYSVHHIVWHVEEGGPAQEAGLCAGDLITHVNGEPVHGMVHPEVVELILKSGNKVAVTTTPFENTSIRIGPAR
Design: key: below the threshold = too weak to quantify, mostly under pKd 3.1 to 4
With B1 the pKd was “below the threshold”. Binder B2 has a pKd of 4.1.

What follows are binders tested against Inadl_6, Q8NI35 (assay: holdup assay). Conditions: plain residues with an end cap or a label only (N-terminal biotin on a linker: ado-ado).
Chain of Inadl_6, Q8NI35 (Q8NI35 1058-1167): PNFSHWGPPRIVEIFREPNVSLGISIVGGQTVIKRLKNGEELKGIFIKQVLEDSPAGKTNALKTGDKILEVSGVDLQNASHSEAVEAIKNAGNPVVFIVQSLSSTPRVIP
Design: key: below the threshold = too weak to quantify, mostly under pKd 3.1 to 4
In the case of B1, the pKd is reported as “below the threshold”. With B2 the pKd was “below the threshold”.
